Results published in article PMC8441410, “Phospho‐regulated Bim1/EB1 interactions trigger Dam1c ring assembly at the budding yeast outer kinetochore” (The EMBO Journal, 2021).

B1: Duo1 subunit within recombinant Dam1^WTc (natural protein, S. cerevisiae, UniProt P53168 1-247, looked up)
chain: MSEQSQLDDSTIDKLIPQIFNEMRSNLNNTTNKFPKSTGGGASDNISANSNSIRSFNSITTQSLLKESESLDKITAMIKNVTAALKNNLPVYVNQVHEVCKSTNSILDSWINIHSQAGYIHKLMSDQTYLKLINDRLHNENVNTNDEDGSTLHNVIALKKKEILDLRQKLENRKGEKDAAPAKPPNQGLNPRYGVQSGRRPVPSAGISNNGRVRKTHVPASKRPSGIPRVTNRWTKPTASSSRKMFR
notes: Duo1, subunit of the Dam1 complex, S. cerevisiae; Stood in the cross-linking experiment as a subunit of m1; source: E. coli, purified as part of Dam1c
B4: Bim1 (yeast homolog of EB1), recombinant (natural protein, S. cerevisiae, UniProt P40013 1-344, looked up)
chain: MSAGIGESRTELLTWLNGLLNLNYKKIEECGTGAAYCQIMDSIYGDLPMNRVKFNATAEYEFQTNYKILQSCFSRHGIEKTVYVDKLIRCKFQDNLEFLQWLKKHWIRHKDESVYDPDARRKYRPIITNNSATKPRTVSNPTTAKRSSSTGTGSAMSGGLATRHSSLGINGSRKTSVTQGQLVAIQAELTKSQETIGSLNEEIEQYKGTVSTLEIEREFYFNKLRDIEILVHTTQDLINEGVYKFNDETITGHGNGNGGALLRFVKKVESILYATAEGFEMNDGEDELNDKNLGEHGTVPNQGGYANSNGEVNGNEGSNHDVIMQNDEGEVGVSNNLIIDEETF
notes: Bim1, S. cerevisiae microtubule plus end-tracking protein; CH domain, linker, coiled coil, EBH domain, C-terminal ETF; also called Bim1/EB1; source: E. coli, purified (GSTrap, further steps as in Zimniak et al 2009)
B5: Spc34 subunit within recombinant Dam1^WTc (natural protein, S. cerevisiae, UniProt P36131 1-295, looked up)
chain: MGESLDRCIDDINRAVDSMSTLYFKPPGIFHNAILQGASNKASIRKDITRLIKDCNHDEAYLLFKVNPEKQSVSRRDGKEGVFDYVIKRDTDMKRNRRLGRPGEKPIIHVPKEVYLNKDRLDLNNKRRRTATTSGGGLNGFIFDTDLIGSSVISNSSSGTFKALSAVFKDDPQIQRLLYALENGSVLMEEESNNQRRKTIFVEDFPTDLILKVMAEVTDLWPLTEFKQDYDQLYHNYEQLSSKLRFIKKEVLLQDDRLKTMSQYHPSSSHDVAKIIRKEKDEIRRLEMEIANLQE
notes: Spc34, subunit of the Dam1 complex, S. cerevisiae; Stood in the cross-linking experiment as a subunit of m1; source: E. coli, purified as part of Dam1c
B6: Dam1 subunit within recombinant Dam1^WTc (natural protein, S. cerevisiae, UniProt P53267 1-343, looked up)
chain: MSEDKAKLGTTRSATEYRLSIGSAPTSRRSSMGESSSLMKFADQEGLTSSVGEYNENTIQQLLLPKIRELSDSIITLDSNFTRLNFIHESLADLNESLGSLLYGIMSNSWCVEFSQAPHDIQDDLIAIKQLKSLEDEKNNLVMELSNMERGIKRKKDEQGENDLAKASQNKQFNQPLFPSSQVRKYRSYDNRDKRKPSKIGNNLQVENEEDYEDDTSSEASFVLNPTNIGMSKSSQGHVTKTTRLNNNTNSKLRRKSILHTIRNSIASGADLPIENDNVVNLGDLHPNNRISLGSGAARVVNGPVTKNRNSMFSGRAERKPTESRHSVAKKTEKKINTRPPFR
notes: Dam1, subunit of the Dam1 complex, S. cerevisiae; Stood in the cross-linking experiment as a subunit of m1; source: E. coli, purified as part of Dam1c

Experiments:
[1] = molecular target: B4; assay: cross-linking; BS3-H12/D12 600 µM, 35°C, 45 min; 60 µg Dam1c without or with 7.4 µg Bim1; cross-linked lysines identified by mass spectrometry; details: both partners purified
[2] = molecular target: B6; assay: as above; details: both partners purified
[3] = molecular target: B5; assay: as above; details: both partners purified
[4] = molecular target: B1; assay: as above; details: both partners purified
Bik1-6xHis = molecular target: T1, Bik1-6xHis (S. cerevisiae, UniProt P11709 1-440); assay: SEC; analytical, Superose 6 Increase 3.2/300; 25 mM HEPES pH 7.4, 200 mM NaCl, 1 mM MgCl2, 0.5 mM TCEP, 2.5% glycerol; fractions by SDS-PAGE or Western blot; Dam1c with Bim1-Bik1 also at 5, 7.5, 10 µM input and at 100 mM NaCl; details: both partners purified
T1 construct: Bik1, S. cerevisiae CLIP-170 homolog; Detected with an anti-penta-His antibody in SEC fractions; also called Bik1/CLIP-170; source: E. coli BL21 Rosetta, purified (HisTrap, gel filtration)
T1 sequence (looked up): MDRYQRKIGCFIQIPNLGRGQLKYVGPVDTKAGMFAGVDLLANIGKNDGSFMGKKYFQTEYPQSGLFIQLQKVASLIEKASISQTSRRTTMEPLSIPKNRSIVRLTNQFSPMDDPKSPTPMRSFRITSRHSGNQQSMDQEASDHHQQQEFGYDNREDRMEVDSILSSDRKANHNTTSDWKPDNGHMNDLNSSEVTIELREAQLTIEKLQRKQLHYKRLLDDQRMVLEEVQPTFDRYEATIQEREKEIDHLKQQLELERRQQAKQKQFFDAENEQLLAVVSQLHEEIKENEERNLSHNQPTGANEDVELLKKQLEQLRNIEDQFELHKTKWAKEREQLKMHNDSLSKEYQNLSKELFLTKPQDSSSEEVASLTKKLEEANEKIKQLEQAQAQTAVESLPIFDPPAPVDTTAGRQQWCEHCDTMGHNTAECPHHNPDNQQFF

[5] = molecular target: Dam1 complex, wild type (Dam1^WTc), recombinant, with Hsk3-6xHis (S. cerevisiae) (UniProt P53267); assay: pull-down; Ndc80c-Flag on anti-Flag M2 agarose beads (loaded from Sf9 lysate, washed); Dam1c or Bim1 alone or Dam1c pre-incubated with increasing Bim1 (up to 16 µM), 4°C 15 min; 25 mM HEPES pH 7.4, 200 mM NaCl, 0.01% Triton X-100; eluted with 3xFlag peptide, SDS-PAGE

## B1
[1]
  binding result: binds
[2]
  binding result: binds
[3]
  binding result: binds

B2: Dad4 subunit within recombinant Dam1^WTc (natural protein, S. cerevisiae, UniProt P69851 1-72, looked up)
chain: MENPHEQVQANILSRIIGNVKRLNESVAILNQELVTINNRNKNLEIMGAICDNYHSSVQFNLEATNNKKPPL
notes: Dad4, subunit of the Dam1 complex, S. cerevisiae; Stood in the cross-linking experiment as a subunit of m1; source: E. coli, purified as part of Dam1c
[1]
  binding result: binds

B3: Spc19 subunit within recombinant Dam1^WTc (natural protein, S. cerevisiae, UniProt Q03954 1-165, looked up)
chain: MTDALEQSVLALEGTVSVLKDSVESLKCANEPSTNLASTMLQTKRVFRLVPEYDVERSKLDLIEEVEPLVRTLGDKLRKSMGRMQRELDTLQQTYELNDLRLKKNISMDDDDALNSPDMGQEYEGRDADDVVMMASSTNEELEELKKLKEKKKQLENKLEILKQK
notes: Spc19, subunit of the Dam1 complex, S. cerevisiae; Stood in the cross-linking experiment as a subunit of m1; source: E. coli, purified as part of Dam1c
[1]
  binding result: binds
[4]
  binding result: binds

## B4
Bik1-6xHis
  binding result: binds
[5]
  decrease of the amount of Dam1c bound to Ndc80c with Bim1 up to 16 µM: 30%

## B5
[1]
  binding result: binds

## B6
[1]
  binding result: binds
